Data on one molecule can be found in US20210030857A1 (NGM BIOPHARMACEUTICALS, published 2021).

Experiment [1] concerns the target T1, mouse beta klotho expressed on cells (mouse (Mus musculus), UniProt Q99N32 1-1043).
T1 construct: also called Mouse KLB
T1 sequence: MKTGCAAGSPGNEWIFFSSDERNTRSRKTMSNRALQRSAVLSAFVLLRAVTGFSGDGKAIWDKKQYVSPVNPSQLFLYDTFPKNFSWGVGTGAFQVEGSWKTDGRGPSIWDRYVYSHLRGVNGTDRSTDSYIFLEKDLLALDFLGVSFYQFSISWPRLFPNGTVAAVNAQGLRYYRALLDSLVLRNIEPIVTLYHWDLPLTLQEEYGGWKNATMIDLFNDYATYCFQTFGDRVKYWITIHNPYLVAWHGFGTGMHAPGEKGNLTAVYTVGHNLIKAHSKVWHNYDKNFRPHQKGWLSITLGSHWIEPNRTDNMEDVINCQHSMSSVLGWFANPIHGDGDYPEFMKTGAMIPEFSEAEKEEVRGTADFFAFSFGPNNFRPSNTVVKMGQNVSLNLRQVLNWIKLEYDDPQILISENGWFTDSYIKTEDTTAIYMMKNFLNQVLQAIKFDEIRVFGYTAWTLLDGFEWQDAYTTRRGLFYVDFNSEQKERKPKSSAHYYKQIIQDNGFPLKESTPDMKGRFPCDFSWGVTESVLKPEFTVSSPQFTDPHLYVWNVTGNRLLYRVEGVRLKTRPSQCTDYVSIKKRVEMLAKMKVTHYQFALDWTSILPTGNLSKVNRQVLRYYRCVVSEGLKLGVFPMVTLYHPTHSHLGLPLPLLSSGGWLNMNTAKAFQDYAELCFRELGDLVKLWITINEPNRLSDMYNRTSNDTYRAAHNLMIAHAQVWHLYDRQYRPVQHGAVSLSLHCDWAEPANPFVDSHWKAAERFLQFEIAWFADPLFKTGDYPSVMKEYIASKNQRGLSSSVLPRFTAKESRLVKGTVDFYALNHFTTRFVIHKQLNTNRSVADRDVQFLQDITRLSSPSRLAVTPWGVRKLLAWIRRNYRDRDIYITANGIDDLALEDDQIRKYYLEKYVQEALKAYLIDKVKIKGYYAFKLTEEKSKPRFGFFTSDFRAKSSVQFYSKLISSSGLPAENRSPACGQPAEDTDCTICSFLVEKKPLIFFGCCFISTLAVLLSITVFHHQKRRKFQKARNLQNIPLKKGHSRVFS
The experiment is described as follows: FACS on transfected Expi293 cells. How it is done: Studies were performed in order to localize the binding site on human KLB of anti-beta klotho antibodies in the 5H23 epitope bin, including 5H23 as described in Example 3, with sequences shown in Tables 1-10 and FIGS. 1-3, and human anti-beta klotho antibodies in the 5H23 epitope bin, such as humanized 5H23 antibodies (e.g., VH SEQ ID NO: 271 and VL SEQ ID NO: 276). For example, FACS-based binding assays for domain mapping were performed on Expi293 cells (Life Technologies, A14635) that were transiently transfected with plasmids encoding variants of KLB: human, mouse, cynomolgus, a chimeric version in which the KL1 domain sequence of mouse KLB (M1-F506) replaces the KL1 domain of human KLB (M1-F508) to create mouse-human KLB (SEQ ID NO: 376), and a second chimera in which the human KL1 sequence (M1-F508) replaces the KL1 domain of mouse KLB (M1-F506) to create human-mouse KLB (SEQ ID NO: 374). Additionally, the expression vector pYD7 harboring no KLB sequence was transfected as a negative control.
In some studies, binding of a purified sample of a humanized 5H23 antibody (e.g., VH SEQ ID NO: 271 and VL SEQ ID NO: 276) to KLB variants was determined by FACS analysis. […] After washing with PBS/1% BSA/0.1% azide, transfected cells were then co-incubated with labeled anti-human Fc (Jackson lmmunoresearch) for 30 minutes at 4° C. After washing with PBS/1% BSA/0.1% azide, cells were acquired on flow cytometer (FACS Calibur) and analyzed by cytometric software (FlowJo). To display the resulting data, graphs plotting the number of cells as a function of fluorescence intensity were generated, and the median fluorescence intensity (MFI) was determined for each sample as shown in Table 30.

Experiment [2] deals with T2, human beta klotho mutant Y701A on HEK-293T cells (human, UniProt Q86Z14 1-1044).
T2 sequence: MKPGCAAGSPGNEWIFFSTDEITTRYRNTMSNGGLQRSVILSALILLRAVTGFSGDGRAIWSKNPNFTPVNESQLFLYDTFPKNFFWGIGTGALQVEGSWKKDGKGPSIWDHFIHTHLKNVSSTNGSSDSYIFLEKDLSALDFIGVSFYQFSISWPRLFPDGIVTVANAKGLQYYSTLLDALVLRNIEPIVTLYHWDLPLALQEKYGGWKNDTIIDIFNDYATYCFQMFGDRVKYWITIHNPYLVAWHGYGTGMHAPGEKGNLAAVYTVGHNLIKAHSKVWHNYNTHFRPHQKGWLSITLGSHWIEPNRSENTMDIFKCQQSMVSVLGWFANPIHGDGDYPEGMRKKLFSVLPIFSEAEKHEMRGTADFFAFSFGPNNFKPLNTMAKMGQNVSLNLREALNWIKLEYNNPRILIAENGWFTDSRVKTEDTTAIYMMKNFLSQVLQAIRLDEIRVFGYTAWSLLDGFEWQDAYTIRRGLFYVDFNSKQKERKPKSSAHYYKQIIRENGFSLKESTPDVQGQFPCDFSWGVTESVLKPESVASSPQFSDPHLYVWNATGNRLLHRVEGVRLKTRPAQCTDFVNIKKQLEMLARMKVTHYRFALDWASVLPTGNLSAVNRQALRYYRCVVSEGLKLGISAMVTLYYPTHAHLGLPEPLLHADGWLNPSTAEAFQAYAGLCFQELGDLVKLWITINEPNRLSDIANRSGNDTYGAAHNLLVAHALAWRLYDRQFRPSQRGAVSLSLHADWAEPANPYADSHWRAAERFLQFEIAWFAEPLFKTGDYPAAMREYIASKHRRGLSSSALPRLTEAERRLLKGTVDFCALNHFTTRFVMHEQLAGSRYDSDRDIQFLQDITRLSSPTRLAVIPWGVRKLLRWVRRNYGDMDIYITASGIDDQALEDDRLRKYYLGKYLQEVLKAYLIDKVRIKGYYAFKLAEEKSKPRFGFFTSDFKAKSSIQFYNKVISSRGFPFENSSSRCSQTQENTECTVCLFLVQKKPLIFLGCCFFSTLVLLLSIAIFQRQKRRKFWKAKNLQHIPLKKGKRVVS
The experiment is described as follows: shotgun alanine mutagenesis, FACS on HEK-293T cells. The protocol:
In order to further identify specific binding residues within human beta klotho KL2 domain, shotgun mutagenesis was used to separately mutate individual residues of the KL2 domain of human beta klotho to an alanine (e.g., residues F508A-L1008A). […] For example, screening of the beta klotho mutant proteins was conducted at a concentration of 0.5 μg/ml for the humanized 5H23 antibody, 1.0 μg/ml for the Fab fragment, and 2.0 μg/ml for a positive control polyclonal anti-beta klotho antibodies.

B1: humanized 5H23 antibody (VH SEQ ID NO: 271 and VL SEQ ID NO: 276) (antibody, V domains shown)
VH: QVQLQQSGAEVKKPGASVKVSCKASGYTFTSYDINWVRQAPGQGLEWIGWIYPGDGSTKYNEKFKGKATITRDTSASTAYMELSSLRSEDTAVYFCARSDYYGSRSFAYWGQGTLVTVSS
VL: DIVMTQSPDSLAVSLGERATINCRASKSVSTSGYVYMHWYQQKPGQPPKLLIYLASYLESGVPDRFSGSGSGTDFTLTISSVQAEDVAVYYCQHSRDLTFPFGGGTKLEIK
notes: also called h5H23; h5H23 (Prep 1)
Take B1: the binding result is on record as “no binding (tested: 1 µg/ml)” in experiment [1] and “no binding (tested: 0.5 µg/ml)” in experiment [2].
